The values that follow come from patent US20190241659A1.

The target in assay [1] is human PD-L1 on the cell surface (PD-L1 transfected HEK293, ES2, CHO PD-L1, engineered CHO cells) (human) (UniProt Q9NZQ7). The experiment in a line: flow cytometry on engineered CHO cells; four-parameter sigmoidal fit, ECf. (In general: Flow cytometry measures light scatter and fluorescence of single cells or particles in a stream.)
Assay [2] has the same target. The experiment in a line: flow cytometry on engineered CHO cells; four-parameter sigmoidal fit, 50% occupancy.
For assay [3], the target named is human OX40 and human PD-L1 expressed together on engineered CHO cells (human) (UniProt P43489). The experiment in a line: flow cytometry on engineered CHO cells, AF647 anti-human IgG; apparent KD, one site specific binding fit.
For assay [4], the target named is human PD-L1 on the cell surface (PD-L1 transfected HEK293, ES2, CHO PD-L1, engineered CHO cells) (human) (UniProt Q9NZQ7). Described as above.

Chain of human PD-L1 on the cell surface (PD-L1 transfected HEK293, ES2, CHO PD-L1, engineered CHO cells) (human) (Q9NZQ7 19-290, change not shown): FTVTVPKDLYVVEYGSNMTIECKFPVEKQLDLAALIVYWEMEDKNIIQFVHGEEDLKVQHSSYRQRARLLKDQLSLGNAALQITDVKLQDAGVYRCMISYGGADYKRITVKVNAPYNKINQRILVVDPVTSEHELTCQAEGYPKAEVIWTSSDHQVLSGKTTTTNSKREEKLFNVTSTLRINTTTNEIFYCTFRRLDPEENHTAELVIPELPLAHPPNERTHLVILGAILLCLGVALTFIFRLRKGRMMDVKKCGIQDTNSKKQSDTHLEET

In assay [1], “MEDI5615 (PD-L1/OX40L BFP2 bispecific molecule, IgG4P)” displayed a concentration for 20% occupancy (EC20) of 0.022 nM and a concentration for 90% occupancy (EC90) of 0.79 nM. The EC50 – broadly, the concentration needed to bring the measured effect to its halfway point – in assay [2] was determined as 0.088 nM. Besides, the Kd in assay [3] was determined as 0.27 nM. The Kd in assay [4] was determined as 0.088 nM.
